The target in experiment [1] is Glucokinase (Homo sapiens) (UniProt P35557). The note with it: cited from earlier work.
Experiment [2] addresses T1, rat liver glucokinase regulatory protein (rat, UniProt Q07071 1-627).
T1 sequence: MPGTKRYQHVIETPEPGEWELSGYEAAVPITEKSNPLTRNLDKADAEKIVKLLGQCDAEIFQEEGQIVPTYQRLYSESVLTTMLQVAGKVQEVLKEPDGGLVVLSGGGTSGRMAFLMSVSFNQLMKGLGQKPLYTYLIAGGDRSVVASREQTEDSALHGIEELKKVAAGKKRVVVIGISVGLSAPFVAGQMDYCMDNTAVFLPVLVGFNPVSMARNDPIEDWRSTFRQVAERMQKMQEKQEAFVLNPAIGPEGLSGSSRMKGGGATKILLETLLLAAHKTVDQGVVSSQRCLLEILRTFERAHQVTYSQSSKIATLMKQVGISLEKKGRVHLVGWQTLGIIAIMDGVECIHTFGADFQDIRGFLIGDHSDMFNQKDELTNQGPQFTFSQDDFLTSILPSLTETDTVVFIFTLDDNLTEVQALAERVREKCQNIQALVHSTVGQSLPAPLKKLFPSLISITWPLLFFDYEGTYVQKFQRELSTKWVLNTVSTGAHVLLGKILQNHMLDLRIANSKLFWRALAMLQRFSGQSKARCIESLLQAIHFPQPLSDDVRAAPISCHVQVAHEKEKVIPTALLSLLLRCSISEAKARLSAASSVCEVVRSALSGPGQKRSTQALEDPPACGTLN
Kind of experiment: crystal structure.

For orientation: Kd means the free concentration of one partner at which half of the binding sites on the other are occupied at equilibrium, for simple one-to-one binding. GKRP (from UniProt Q07071): the Kd in experiment [1] is 1000 nM.

B1: human pancreatic glucokinase (enzyme)
chain: DDRARMEAAKKEKVEQILAEFQLQEEDLKKVMRRMQKEMDRGLRLETHEEASVKMLPTYVRSTPEGSEVGDFLSLDLGGTNFRVMLVKVGEGEEGQWSVKTKHQMYSIPEDAMTGTAEMLFDYISECISDFLDKHQMKHKKLPLGFTFSFPVRHEDIDKGILLNWTKGFKASGAEGNNVVGLLRDAIKRRGDFEMDVVAMVNDTVATMISCYYEDHQCEVGMIVGTGCNACYMEEMQNVELVEGDEGRMCVNTEWGAFGDSGELDEFLLEYDRLVDESSANPGQQLYEKLIGGKYMGELVRLVLLRLVDENLLFHGEASEQLRTRGAFETRFVSQVESDTGDRKQIYNILSTLGLRPSTTDCDIVRRACESVSTRAAHMCSAGLAGVINRMRESRSEDVMRITVGVDGSVYKLHPSFKERFHASVRRLTPSCEITFIESEEGSGRGAALVSAVACKKACMLGQ
As to B1, the binding result in experiment [2] was “binds”.

Source of the values: article PMC3859847 (Biochemistry, 2013).
